# Paper PMC11332147, “Repression of Acinetobacter baumannii DNA damage response requires DdrR-assisted binding of UmuDAb dimers to atypical SOS box”
# Where a chain is given by its changes, count along the chain named.
# T1: UmuDAb (Acinetobacter baumannii ATCC 17978 JH, UniProt A0A0D5YJU0 1-203)
# T1 sequence: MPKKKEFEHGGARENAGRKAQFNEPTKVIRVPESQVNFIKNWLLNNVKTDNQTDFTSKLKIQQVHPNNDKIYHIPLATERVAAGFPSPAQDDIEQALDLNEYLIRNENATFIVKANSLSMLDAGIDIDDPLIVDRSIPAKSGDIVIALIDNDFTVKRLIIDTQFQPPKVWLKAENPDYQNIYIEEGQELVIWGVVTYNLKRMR
# B1: LR3 (dsDNA)
# DNA 1: TCGTCAACCCAGAAATGTAACTTTTCTGGGTTACATT
# DNA 2: AATGTAACCCAGAAAAGTTACATTTCTGGGTTGACGA
# B2: L2C31-2 (dsDNA)
# DNA 1: TCGTCAACCCAGAAATTCAACTTTTTCAAGTTACATT
# DNA 2: AATGTAACTTGAAAAAGTTGAATTTCTGGGTTGACGA
# B3: L2C34-5 (dsDNA)
# DNA 1: B2 DNA 1 with T17G, C18T, A20G, C21A
# DNA 2: B2 DNA 2 with G17A, G20A, A21C
# B4: WT 37 bp UmuDAb operator probe (dsDNA)
# DNA 1: TCGTCAACTTGAAAATGTAACTTTTTCAAGTTACATT
# DNA 2: AATGTAACTTGAAAAAGTTACATTTTCAAGTTGACGA
# B5: R2 (dsDNA)
# DNA 1: B1 DNA 1 with C9T, C10T, A11G, G12A
# DNA 2: B1 DNA 2 with C26T, T27C, G28A, G29A
# B6: L1 (dsDNA)
# DNA 1: B4 DNA 1 with C27T, A28G
# DNA 2: B4 DNA 2 with T10C, G11A
# B7: L2 labeled probe (dsDNA)
# DNA 1: B2 DNA 1 with T17G, C18T
# DNA 2: B2 DNA 2 with G20A, A21C
# B8: R1 (dsDNA)
# DNA 1: B4 DNA 1 with T10C, G11A
# DNA 2: B4 DNA 2 with C27T, A28G
# B9: C3 (dsDNA)
# DNA 1: B4 DNA 1 with G17T, T18C, A20G, C21A
# DNA 2: B4 DNA 2 with G17T, T18C, A20G, C21A
# Columns and labels:
# UmuDAb [1] = biological target: T1, UmuDAb; assay: competition; 100x competitor; […] (10x = 100 mM Tris, 500 mM KCl, 10 mM DTT, […]; settings: protein: recombinant; chain copies: 2; blunt
# UmuDAb [2] = biological target: T1, UmuDAb; assay: competition; 100x competitor; also fails vs L2-labeled probe (Fig S3); […] (10x = 100 mM Tris, 500 mM KCl, 10 mM DTT, […]; settings: protein: recombinant, chain copies: 2, blunt
# UmuDAb R201X = UmuDAb R201X (Acinetobacter baumannii ATCC 17978 JH, UniProt A0A0D5YJU0 1-200); assay: EMSA; 60-70% bound above 1 uM; […] (10x = 100 mM Tris, 500 mM KCl, 10 mM DTT, […]; settings: protein: recombinant; chain copies: 2; label: 5' IRDye700 on both strands; blunt
# UmuDAb HTH1 = UmuDAb HTH1 (Acinetobacter baumannii ATCC 17978 JH, UniProt A0A0D5YJU0 1-203, E24K); assay: EMSA; Hill 6.1; 94% bound; […] (10x = 100 mM Tris, 500 mM KCl, 10 mM DTT, […]; settings: protein: recombinant; chain copies: 2; label: 5' IRDye700 on both strands; blunt
# UmuDAb G124D = UmuDAb G124D (Acinetobacter baumannii ATCC 17978 JH, UniProt A0A0D5YJU0 1-203, G124D); assay: EMSA; Bmax < 0.90; […] (10x = 100 mM Tris, 500 mM KCl, 10 mM DTT, […]; settings: protein: recombinant; chain copies: 2; label: 5' IRDye700 on both strands; blunt
# UmuDAb N100D = UmuDAb N100D (Acinetobacter baumannii ATCC 17978 JH, UniProt A0A0D5YJU0 1-203, N100D); assay: as above; settings: protein: recombinant; chain copies: 2; label: 5' IRDye700 on both strands; blunt
# UmuDAb HTH2 = UmuDAb HTH2 (Acinetobacter baumannii ATCC 17978 JH, UniProt A0A0D5YJU0 1-203, K40P;N41P); assay: EMSA; Hill 10.8; 78% bound; […] (10x = 100 mM Tris, 500 mM KCl, 10 mM DTT, […]; settings: protein: recombinant; chain copies: 2; label: 5' IRDye700 on both strands; blunt
# UmuDAb [3] = biological target: T1, UmuDAb; assay: EMSA; Hill 4.9; EMSA: LI-COR Odyssey binding buffer (10x = 100 mM Tris, 500 mM KCl, 10 mM DTT, pH 7.5), 25 mM DTT, 1 ug/uL poly(dI-dC), 200 fmol probe per 20 uL, 20 min at room temperature; 5% TBE gel run at 4 C; settings: protein: recombinant; chain copies: 2; label: 5' IRDye700 on both strands; blunt
# UmuDAb W192X = UmuDAb W192X (Acinetobacter baumannii ATCC 17978 JH, UniProt A0A0D5YJU0 1-191); assay: EMSA; Hill 6.1; 60-70% bound above 1 uM; […] (10x = 100 mM Tris, 500 mM KCl, 10 mM DTT, […]; settings: protein: recombinant; chain copies: 2; label: 5' IRDye700 on both strands; blunt
# UmuDAb A83Y = UmuDAb A83Y (Acinetobacter baumannii ATCC 17978 JH, UniProt A0A0D5YJU0 1-203, A83Y); assay: EMSA; Hill 4.65; legend gives 69 nM; […] (10x = 100 mM Tris, 500 mM KCl, 10 mM DTT, […]; settings: protein: recombinant; chain copies: 2; label: 5' IRDye700 on both strands; blunt
# UmuDAb [4] = biological target: T1, UmuDAb; assay: competition; 100x competitor; not different from WT; […] (10x = 100 mM Tris, 500 mM KCl, 10 mM DTT, […]; settings: protein: recombinant; chain copies: 2; blunt
# UmuDAb [5] = biological target: T1, UmuDAb; assay: EMSA; no higher MW second band; […] (10x = 100 mM Tris, 500 mM KCl, 10 mM DTT, […]; settings: protein: recombinant; chain copies: 2; blunt
binder,measurement,setting,value
B1,binding result,UmuDAb [1],no binding
B2,binding result,UmuDAb [2],no binding
B3,binding result,UmuDAb [2]; 2 mismatches in core as printed,no binding
B4,Kd,UmuDAb R201X,0.353 µM
same,Kd,UmuDAb HTH1,0.099 µM
same,Kd,UmuDAb G124D,0.39 µM
same,Kd,UmuDAb N100D,0.306 µM
same,Kd,UmuDAb HTH2,0.114 µM
same,Kd,UmuDAb [3],0.0389 µM
same,Kd,UmuDAb W192X,0.54 µM
same,Kd,UmuDAb A83Y,0.07 µM
B5,binding result,UmuDAb [4],binds
B6,binding result,UmuDAb [4],binds
B7,binding signal,UmuDAb [5],~0.75 Kd ratio to WT probe
B8,binding result,UmuDAb [4],binds
B9,binding result,UmuDAb [1],no binding
